Results on seven sequences are retold here after a protein production outcome set (Wang et al. 2014).
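Note: failed if final PepcDB status was selected cloned or expressed and not failed if soluble or beyond.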

The nature of this data set: label from the status in PepcDB records.
On to “MLLDKIQNLIIQSDISIFQSMKKMDEEKVKLLFVFRGDCFVGILTIGDIQRAIIKQNDTSMQINNILDQNKVFAYKGESLEIIKNKMIHLRAECMPILDSKGELVDVLFWKDLFIDEVRVDDRKIDLPVVIMAGGKGTRLKPLTNVIPKPLIPIGDKTILEAILDQFESIGCSKFYMSVNYKYDILKFYLAQLDHKYDIRFFKEDKPLGTIGSVSLLKDKISTPFFVSNCDIIIDQDYRDVYDYHINNSNDLTIVTAVKRTRIPYGVIETIENGLMTELIEKPEFTYMINSGVYILQPELINEIPENELFHITHLMEKVKSRGGKIGCFPVSEKSWTDIGEWNEYLKLLGILEHHHHHH”, for which the protein production entry was “failed”.
The entry for “MLLILIIIAFVVLFVFFAKYQKKQAQAAALAAGDPSALLNHGLTLINQNQVETGLDFIHQAVDKGFAIAAIALAELYSGRFPQVPADAKASNDWYKKAAELDPQYLAMLTLPNLLSSQAQTPDELIAQVEQLKPNAEAGQAEFQYELAYLYLRQPFLDPDASQAIYWFEKAAAQNKQEANYHLGTLYKDDERITSDYNKARKYFEKAVAAGDELAKDNLAHMLATGQGGPKDLVRAEHLLSEYAAEDDFRQYYLGKRFLYGEDFAVDYDKARHWLEKSSAAGNVFAKLALAHLKLLAQKNDQDYLQARTEFEALAPQWQEEALFGLGKIYEEGLGVSRQPIKALMYYQLAAMSHNTDYLTAYDKLSKRLGTLEIREAQSLCNNFLHQHPIPNEQQAYYYLNQAEIYRKGDHPSREGLQTAETWYRKSADLGNQNAMQALVEIYRHELMDKPVQAFIWSSILLRNFGKYGMNSDQLLYQQQAQSRLTESELLYAQSEIERIEALLTPYLETHQSV” is “failed”; for “MLLLHWDNMGKIELHHVFVMLSCIYLIFSDISINSAVVFLFSSIFFYISFTAGKRLYYLIGIDKENLKINLKKHYNFGIFLMIVGLIAVTSDLIWVKDVPLFNPLSRKFLNVYFTTLSHLFLVGWAIVVASSNIDKKKILLYTIIFSILIMLLGYRTNVLVLLISVGAILYYKNKISNREILKYGILVFVILLGLSILRLYALGVEGNPITSRISLTMSIYDIIFNNFNGVFNGYIHYSAVFSYLGLCNGARTVIAKTLGIYNVSITPTIVGAVIGDYGTLAIIPYFGILGIFLGFFYKLAKDVKGIYLGIYGILFAYTLIGIESGILDIDVILYYFFGLILCIYAILLRKLKR” it is “failed”.
Regarding “MLLSFDNKAIADWAKLSGDYNPIHFEVERARETGANDIIVHGMLPLLHIKQRLSTVLPADTGRDWVSVKAMFRSPVLRQLPHALEIQPGKQRSRFSLRATHDASEVMAGSVYRSVPAESPEQPASFSIDRQLFREKRAVFAEAFPDFDRAWLLVDALTFSQFLSSEVPFSIVRDLAKMSGIASQHELMDAALTVQTAHTVMVEPELFRMPLSQLKDPGEIRCELHAPVTVPNSKDTLSGLSQFTVRLDGRPVMQSEVGLLVRFKS”, the protein production result is “failed”.
For the sequence “MLLSIIMPAHNAAAYLERTLALLAQQIAGLEQVEVVAIDDASTDETAKILVEFARTHSWLKAISVDFANVGLARQAGIGLAGGQYVTFLDSDDAFLSGGLAWMVNVLRQRAPDLLMTPLQETGQPLDGTEVAGLFQDVVPLSTQQACDLFCEHQRLQGHFAGKCVTRQILLQHDLAAMECYEDMMTTPHWIVEAKSIVWGEVPVYAYYKRPGSLSDRGQTWRYGKEYIRALQSIEAAFAGRIAVWQTAHLWIGFAKDLLKTSTGRQFLDTQPAVAEKIQSISVWKYLVATQVSCKWKIRFLRVRLRLLEHHHHHH”, the protein production result is “not failed”.
In the case of “MLLYIHGFNSSPFSDKAVITARYMAEYHPSLTFHQPQLPNTPKAAMALLQSYVEAAQQANEPLNYIGSSLGGYFASYLAERYGGRAVLVNPAVKPFELFDEFMGPQFNPYTQEHYQVLPEHKREVAEFNTPVIRNPERFLVLLQTGDEVLDYREALHKYHHCQLRIESGGDHSFVGYERYLQTVSQFLH” it was “failed”.
With “MLNAIKFRIYPNAQQKELISKHFGCSRVVYNYFLDYRQKQYAKGIKETYFTMQKVLTQIKRQEKYHYLNECNSQSLQMALRQLVSAYDNFFSKRARYPKFKSKKNAKQSFAIPQNIETKTETQTIALPKFKEGIKAKLHRDLPKDSVIKQAFISCIADQYFCSLSYETKEPIPKPTIIKKAVGLDMGLRTLIVTSDKIGYPHIRFYQKLEKKLTKAQRRLSKKVKDSNNRKKQAKKVSRLHLACSNTRDDYLHKISNEITNQYDLIGVETLNVKALMRTYHSKSLANASWGKFLTMLEYKAQRKGKTLLSIDRFFPSSQLCSYCGVNTGKKHESITKFTCPHCQTTHHRDYNASVNIRNYALGMLDDRHKVKTDKARVGIIRSDYTHHTNECVKACGASSNGVSSKYGNILDLASYGAMKQEKAQSL”, the protein production result is “failed”.
